What was measured:
Experiment in all cases: flow cytometry on RBCs, CHO supernatant 10 ng/ml
[1] = target: T1, human CD47 (human, UniProt Q08722 19-323)
T1 construct: whole, on cells; also called CD47 on human RBCs; CD47 on OV10 cells
Procedure: (§1) RBCs are incubated for 60 minutes on ice with tissue culture supernatants containing the secreted humanized antibodies at a concentration of 10 ng/ml in a solution of phosphate buffered saline, pH 7.2, 2.5 mM EDTA (PBS+E), or with various concentrations of purified antibodies. Cells are then washed with cold PBS+E, and incubated for an additional hour on ice with FITC labeled donkey anti-human antibody (Jackson Immuno Research Labs, West Grove, Pa.; Catalogue #709-096-149) in PBS+E. Cells are then washed with PBS+E, and antibody binding is analyzed using a BD FACSAria Cell Sorter (Becton Dickinson) or a C6 Accuri Flow Cytometer (Becton Dickinson). Antibody binding is quantitated by comparison of mean fluorescence values relative to that of chimeric antibody >VxP037-01LC (SEQ ID NO:7))/>VxPO37-01HC (SEQ ID NO:57). The mean fluorescence value for each antibody is divided by the mean fluorescence value for the chimeric antibody.

[2] = target: T2, mouse CD47 (mouse, UniProt Q61735 19-303)
T2 construct: whole, on cells; also called CD47 on mouse RBCs; CD47 on 4T1 cells
T2 sequence (looked up): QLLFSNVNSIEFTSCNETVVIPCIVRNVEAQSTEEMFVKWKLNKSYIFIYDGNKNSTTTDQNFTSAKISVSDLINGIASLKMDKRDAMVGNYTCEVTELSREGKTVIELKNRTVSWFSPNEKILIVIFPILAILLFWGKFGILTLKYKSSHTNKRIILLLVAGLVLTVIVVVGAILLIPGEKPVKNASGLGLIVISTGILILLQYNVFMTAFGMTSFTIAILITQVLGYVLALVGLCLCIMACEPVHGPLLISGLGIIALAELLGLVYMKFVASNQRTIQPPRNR
Procedure: as §1

[3] = target: T3, dog CD47 (dog, UniProt A0A8I3PM61 19-310)
T3 construct: also called CD47 on dog RBCs
T3 sequence: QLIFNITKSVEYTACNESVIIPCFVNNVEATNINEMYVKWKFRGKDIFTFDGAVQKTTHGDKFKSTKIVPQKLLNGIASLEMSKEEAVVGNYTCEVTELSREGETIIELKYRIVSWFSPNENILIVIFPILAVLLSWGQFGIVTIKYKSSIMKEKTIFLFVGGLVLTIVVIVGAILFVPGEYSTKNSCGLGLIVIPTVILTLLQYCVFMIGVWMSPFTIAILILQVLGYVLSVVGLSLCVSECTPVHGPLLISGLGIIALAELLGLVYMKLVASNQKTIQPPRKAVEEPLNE
Procedure: as §1

[4] = target: T4, rat CD47 (rat, UniProt P97829 19-303)
T4 construct: whole, on cells; also called CD47 on rat RBCs
T4 sequence (looked up): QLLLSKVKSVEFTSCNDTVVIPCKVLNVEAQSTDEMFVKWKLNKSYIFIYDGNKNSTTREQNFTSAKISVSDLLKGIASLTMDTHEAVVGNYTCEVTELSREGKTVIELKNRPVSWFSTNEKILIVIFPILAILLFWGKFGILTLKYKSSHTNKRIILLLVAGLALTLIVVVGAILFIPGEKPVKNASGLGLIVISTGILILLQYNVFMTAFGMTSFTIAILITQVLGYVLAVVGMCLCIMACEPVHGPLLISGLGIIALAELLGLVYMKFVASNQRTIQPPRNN
Procedure: as §1

[5] = target: T5, pig CD47 (pig, UniProt Q9GKE8 19-303)
T5 construct: whole, on cells; also called CD47 on porcine RBCs
T5 sequence (looked up): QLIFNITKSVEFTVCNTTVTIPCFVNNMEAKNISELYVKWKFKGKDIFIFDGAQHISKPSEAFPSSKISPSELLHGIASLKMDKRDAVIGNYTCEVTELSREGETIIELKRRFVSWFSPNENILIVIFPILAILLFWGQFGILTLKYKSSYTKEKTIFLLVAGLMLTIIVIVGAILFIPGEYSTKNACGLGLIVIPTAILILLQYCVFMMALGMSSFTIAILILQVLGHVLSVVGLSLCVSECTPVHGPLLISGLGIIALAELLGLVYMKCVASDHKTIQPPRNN
Procedure: as §1

T1 sequence (Q08722 19-323): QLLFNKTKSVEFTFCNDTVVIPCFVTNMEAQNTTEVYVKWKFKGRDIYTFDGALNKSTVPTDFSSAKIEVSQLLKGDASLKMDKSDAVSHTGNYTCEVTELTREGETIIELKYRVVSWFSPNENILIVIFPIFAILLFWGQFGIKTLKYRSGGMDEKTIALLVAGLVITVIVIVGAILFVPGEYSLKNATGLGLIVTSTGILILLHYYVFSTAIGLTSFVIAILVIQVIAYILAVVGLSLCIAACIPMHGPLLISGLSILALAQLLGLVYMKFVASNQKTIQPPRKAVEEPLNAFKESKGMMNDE

| Binder | mean fluorescence relative to chimeric antibody [1] [ratio] | mean fluorescence relative to chimeric antibody [2] [ratio] | mean fluorescence relative to chimeric antibody [3] [ratio] | mean fluorescence relative to chimeric antibody [4] [ratio] | mean fluorescence relative to chimeric antibody [5] [ratio] |
| --- | --- | --- | --- | --- | --- |
| Clone 24 (pVxK7b-037-hum24-LC / pVxK7b-037-hum24-HC) (antibody, human IgG1, kappa, V domains shown, also called Cl 24) VH: QVQLQESGPGLVKPGATVKISCKVSGYTFTNYYVFWVRQARGQRLEWIGDINPVNGDTNFNEKFKNRVTITADKSTSTAYMELSSLRSEDTAVYYCARGGYTMDYWGQGTLVTVSS VL: AIQLTQSPSSLSASVGDRVTITCRSSQSLVHSNGNTYLHWYQQKPGQAPRLLIYKVSYRFSGVPSRFSGSGSGTEFTLTISSLQPDDFATYYCSQNTHVPRTFGQGTKVEIKR | 0.8 | 0.7 | 1 | 1.2 | 1.1 |
| Clone 4 (pVxK7b-037-hum04-LC / pVxK7b-037-hum04-HC) (antibody, human IgG1, kappa, V domains shown) VH: QVQLQESGPGLVKPSQTLSLTCTVSGYTFTNYYVFWVRQAPGKGLEWVSDINPVNGDTNFNEKFKNRVTISVDTSKNQFSLKLSSVTAADTAVYYCARGGYTMDYWGQGTLVTVSS VL: DIQMTQSPSSLSASVGDRVTITCRSSQSLVHSNGNTYLHWYLQKPGQSPQLLIYKVSYRFSGIPARFSGSGSGTEFTLTISSLQSEDFAVYYCSQNTHVPRTFGQGTKVEIKR | 0.6 | 0.6 | 0.6 | 1 | 0.6 |
| Clone 5 (pVxK7b-037-hum05-LC / pVxK7b-037-hum05-HC) (antibody, human IgG1, kappa) heavy: not shown light: DIVMTQTPLSLPVTPGEPASISCRSSQSLVHSNGNTYLHWYLQKPGQSPQLLIYKVSYRFSGVPDRFSGSGSGTDFTLKISRVEAEDVGVYYCSQNTHVPRTFGQGTKVEIKRTVAAPSVFIFPPSDEQLKSGTASVVCLLNNFYPREAKVQWKVDNALQSGNSQESVTEQDSKDSTYSLSSTLTLSKADYEKHKVYACEVTHQGLSSPVTKSFNRGEC | 1 | 1 | 1.1 | 2.2 | 1.2 |
| Clone 7 (pVxK7b-037-hum07-LC / pVxK7b-037-hum07-HC) (antibody, human IgG1, kappa, V domains shown) VH: QVQLQESGPGLVKPGATVKISCKVSGYTFTNYYVFWVRQARGQRLEWIGDINPVNGDTNFNEKFKNRVTITADKSTSTAYMELSSLRSEDTAVYYCARGGYTMDYWGQGTLVTVSS VL: DIVMTQTPLSLPVTPGEPASISCRSSQSLVHSNGNTYLHWYLQKPGQSPQLLIYKVSYRFSGVPDRFSGSGSGTDFTLKISRVEAEDVGVYYCSQNTHVPRTFGQGTKVEIKR | 0.5 | 0.4 | 0.8 | 0.8 | 0.9 |
| Clone 12 (pVxK7b-037-hum12-LC / pVxK7b-037-hum12-HC) (antibody, human IgG1, kappa, V domains shown) VH: QVQLQESGPGLVKPGATVKISCKVSGYTFTNYYVFWVRQARGQRLEWIGDINPVNGDTNFNEKFKNRVTITADKSTSTAYMELSSLRSEDTAVYYCARGGYTMDYWGQGTLVTVSS VL: DIVMTQTPLSLPVTPGEPASISCRSSQSLVHSNGNTYLHWYQQKPGKAPKLLIYKVSYRFSGVPDRFSGSGSGTDFTLKISRVEAEDVGVYYCSQNTHVPRTFGQGTKVEIKR | 0.8 | 0.6 | 0.9 | 1.3 | 1.4 |
| Clone 8 (pVxK7b-037-hum08-LC / pVxK7b-037-hum08-HC) (antibody, human IgG1, kappa) heavy: not shown light: DIVMTQTPLSLPVTPGEPASISCRSSQSLVHSNGNTYLHWYQQKPGKAPKLLIYKVSYRFSGVPDRFSGSGSGTDFTLKISRVEAEDVGVYYCSQNTHVPRTFGQGTKVEIKRTVAAPSVFIFPPSDEQLKSGTASVVCLLNNFYPREAKVQWKVDNALQSGNSQESVTEQDSKDSTYSLSSTLTLSKADYEKHKVYACEVTHQGLSSPVTKSFNRGEC | 0.7 | 0.7 | 0.8 | 1.2 | 0.8 |
| Clone 11 (pVxK7b-037-hum11-LC / pVxK7b-037-hum11-HC) (antibody, human IgG1, kappa, V domains shown, also called Cl 11) VH: QVQLQESGPGLVKPGATVKISCKVSGYTFTNYYVFWVRQARGQRLEWIGDINPVNGDTNFNEKFKNRVTITADKSTSTAYMELSSLRSEDTAVYYCARGGYTMDYWGQGTLVTVSS VL: EIVLTQSPATLSVSPGERATLSCRSSQSLVHSNGNTYLHWYQQKPGQAPRLLIYKVSYRFSGVPSRFSGSGSGTDFTFTISSLEAEDAATYYCSQNTHVPRTFGQGTKVEIKR | 0.8 | 0.7 | 0.8 | 1.2 | 1.2 |
| Clone 16 (pVxK7b-037-hum16-LC / pVxK7b-037-hum16-HC) (antibody, human IgG1, kappa, V domains shown) VH: QVQLQESGPGLVKPSQTLSLTCTVSGYTFTNYYVFWVRQARGQRLEWIGDINPVNGDTNFNEKFKNRVTISADKSISTAYLQWSSLKASDTAMYYCARGGYTMDYWGQGTLVTVSS VL: AIQLTQSPSSLSASVGDRVTITCRSSQSLVHSNGNTYLHWYQQKPGQAPRLLIYKVSYRFSGVPDRFSGSGSGTDFTLKISRVEAEDVGVYYCSQNTHVPRTFGQGTKVEIKR | 0.9 | 1 | 1.1 | 2.1 | 1.1 |
| Clone 17 (pVxK7b-037-hum17-LC / pVxK7b-037-hum17-HC) (antibody, human IgG1, kappa) heavy: not shown light: AIQLTQSPSSLSASVGDRVTITCRSSQSLVHSNGNTYLHWYQQKPGQAPRLLIYKVSYRFSGVPDRFSGSGSGTDFTLKISRVEAEDVGVYYCSQNTHVPRTFGQGTKVEIKRTVAAPSVFIFPPSDEQLKSGTASVVCLLNNFYPREAKVQWKVDNALQSGNSQESVTEQDSKDSTYSLSSTLTLSKADYEKHKVYACEVTHQGLSSPVTKSFNRGEC | 0.8 | 0.9 | 1.3 | 2.1 | 1.3 |
| Clone 18 (pVxK7b-037-hum18-LC / pVxK7b-037-hum18-HC) (antibody, human IgG1, kappa, V domains shown) VH: EVQLVQSGAEVKKPGESLRISCKGSGYTFTNYYVFWIRQSPSRGLEWLGDINPVNGDTNFNEKFKNRVTITADKSTSTAYMELSSLRSEDTAVYYCARGGYTMDYWGQGTLVTVSS VL: EIVLTQSPATLSVSPGERATLSCRSSQSLVHSNGNTYLHWYQQKPGQAPRLLIYKVSYRFSGVPSRFSGSGSGTDFTFTISSLEAEDAATYYCSQNTHVPRTFGQGTKVEIKR | 1 | 1.3 | 1.5 | 2.2 | 1.2 |
